Data taken from patent US20180215829A1 (CRESCENDO BIOLOGICS, published 2018).

Tests used:
[1] = target: T1, recombinant human IL-17RA Fc fusion protein (R&D Systems 177-IR-100) (human, UniProt Q96F46 33-320); assay: BIAcore T200 single-cycle kinetics, IL-17RA-Fc captured on protein G chip, VH as analyte
T1 construct: Bought protein; not shown: Fc domain of human IgG1
T1 sequence: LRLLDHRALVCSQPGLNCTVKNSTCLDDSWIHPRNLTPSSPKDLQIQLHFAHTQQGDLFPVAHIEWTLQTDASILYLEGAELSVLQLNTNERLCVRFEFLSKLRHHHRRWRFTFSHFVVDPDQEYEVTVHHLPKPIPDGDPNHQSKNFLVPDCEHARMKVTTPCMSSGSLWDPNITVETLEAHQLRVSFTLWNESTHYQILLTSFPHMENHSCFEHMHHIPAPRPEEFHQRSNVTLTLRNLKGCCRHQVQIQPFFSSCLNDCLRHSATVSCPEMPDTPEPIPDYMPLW
Protocol: Binding kinetics of anti-IL-17RA VH antibodies were measured on a BIAcore® T200 instrument. For IL-17RA, first a protein G chip was prepared by diluting protein G to 20 ug/ml in acetate buffer, pH 4 (BIAcore®, cat# BR-100-49) and then coupled 1200 RU to a CM5 Series S chip using amine coupling chemistry. This surface was then used to capture IL-17RA Fc fusion protein from solution: IL-17RA at 10 ug/ml in HBS injected for 10 seconds at 30 ul/min flow rate would capture approximately 100-150 RU of IL-17RA onto the protein G surface.
Binding kinetics of anti-IL-17RA VH antibodies were determined by single-cycle kinetics. VH antibodies were prepared in dilution series (typically 1:3 dilution series starting with 100 nM VH at the highest concentration), and then injected over the antigen coated surfaces and also a blank surface, starting with the lowest concentration of VH and then working progressively up to the highest concentration. VH binding kinetics were then determined from the (blank subtracted) sensorgram traces using 1:1 binding models and BIAevaluation software.

IL-17RD = target: T2, IL-17RD (UniProt Q8NFM7 17-299, limits assumed); assay: specificity ELISA, antigen coated, anti-His-HRP detection
T2 sequence (looked up): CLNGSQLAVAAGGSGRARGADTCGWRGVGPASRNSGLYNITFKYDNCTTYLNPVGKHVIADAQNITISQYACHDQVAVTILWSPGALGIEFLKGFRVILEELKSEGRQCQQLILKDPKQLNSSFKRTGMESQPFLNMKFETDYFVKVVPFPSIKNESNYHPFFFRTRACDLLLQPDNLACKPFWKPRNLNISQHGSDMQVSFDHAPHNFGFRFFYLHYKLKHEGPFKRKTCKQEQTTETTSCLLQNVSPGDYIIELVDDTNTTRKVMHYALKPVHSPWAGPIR
Protocol: (§1) The binding ELISA for crude or purified VH was similar to the serum ELISA and phage ELISA, previously described, mostly differing in the final detection steps. Briefly, antigen was immobilised on maxisorb plates (Nunc 443404) by adding 50 ul volumes at 0.1-1 ug/ml in PBS and incubating at 4° C. overnight. Following coating, the antigen solution was aspirated and the plates were washed using PBS (prepared from PBS tablets, Oxoid cat no. BR0014G) supplemented with 0.05% Tween® 20 (sigma P1379), followed by washes with PBS without added Tween®. To block non-specific protein interactions, a solution of 3% skimmed milk powder (Marvel) in PBS was added to the wells and the plate was incubated for at least one hour at room temperature. Dilutions of periplasmic extract or purified VH in 3% Marvel/PBS were prepared in polypropylene tubes or plates and incubated for at least one hour at room temperature prior to transfer to the blocked ELISA plate where a further incubation of at least one hour took place. Unbound protein was then washed away using repetitive washes with PBS/Tween® followed by PBS. A solution of HRP-conjugated anti-His Ab (Miltenyi Biotec, 130-092-785), prepared at 1:1000 dilution in PBS/3% Marvel was then added to each well and a further incubation at room temperature for at least one hour took place. Unbound detection antibody was removed by repeated washing using PBS/Tween® and PBS. The ELISA was then developed using TMB substrate (Sigma cat. no. T0440) and the reaction was stopped after 10 minutes by the addition of 0.5M H₂SO₄ solution (Sigma cat. no. 320501). Absorbances were determined by reading at 450 nm.

IL-17RB = target: T3, IL-17RB (UniProt Q9NRM6 18-289, limits assumed); assay: as above
T3 sequence (looked up): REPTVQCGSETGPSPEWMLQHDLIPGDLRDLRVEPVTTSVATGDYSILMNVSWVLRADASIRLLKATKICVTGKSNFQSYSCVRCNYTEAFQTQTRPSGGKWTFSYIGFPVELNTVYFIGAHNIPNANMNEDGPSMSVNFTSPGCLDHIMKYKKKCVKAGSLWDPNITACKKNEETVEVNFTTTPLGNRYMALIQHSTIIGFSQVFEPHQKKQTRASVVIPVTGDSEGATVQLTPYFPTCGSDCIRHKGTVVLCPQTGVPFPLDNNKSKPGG
Protocol: as §1

Kd [1]: 7 nM | koff [1]: 0.00263 s⁻¹ | kon [1]: 368000 M⁻¹ s⁻¹ | binding result (IL-17RD): no binding | binding result (IL-17RB): no binding
B1: VH clone 2.1 (VHH)
VHH: QVQLVQSGAEVKKPGASVKVSCKASGYPFTSYDINWVRQATGQSLEWMGWMNPNSGDTVYAQKFQGRVTMTRNTSISTAYMELSSLRSEDTAVYFCARGRRDDWKNNYWGQGTLVTVSS
notes: Human VH single domain antibody, no light chain; Parent clone of family 2; also called VH 2.1
